The text below walks through data of the RNAGym collection of RNA variant scans (doi:10.7554/elife.80360).

B1: HDV Ribozyme (parent)
chain: GGCCGGCAUGGUCCCAGCCUCCUCGCUGGCGCCGGCUGGGCAACAUUCCGAGGGGACCGUCCCCUCGGUAAUGGCGAAUGGGACCCA

In the data set the parent is B1. The data set can be described thus: self-cleavage, relative activity (ratio to wild type); higher = more cleavage; co-transcriptional.
As for GGCCGGCAUGGUCCCAGCCUCCUCGCUGGCCCCGGCUGGGCAACAUUCCGAGGGGACCGUCCCCUCGGUAAUGGCGAAUGGAACCCA [G31C G82A], the self-cleavage amounted to 0.0563. With GGCCGGCAUGGUCCCAGCCUCCUCGCUGGCCCCGGCUGGGCAACAUUUCGAGGGGACCGUCCCCUCGGUAAUGGCGAAUGGGACCCA [G31C C48U], the self-cleavage amounted to 0.475.

Regarding GGCCGGCAUGGUCCCAGCCUCCUCGCUGGCCCCGGCUGGGCAACAUUCCGAGGGGACCGUCCCAUCGGUAAUGGCGAAUGGGACCCA [G31C C64A], the self-cleavage turned out to be 0.148. For the variant GGCCGGCAUGGUCCCAGCCUCCUCGCUGGCCCCGGCUGGGCAACAUUCCGAGGGGACCGUCCCGUCGGUAAUGGCGAAUGGGACCCA [G31C C64G], the self-cleavage was determined as 0.292. In the case of GGCCGGCAUGGUCCCAGCCUCCUCGCUGGCCCCGGCUGGGCAACAUUCCGAGGGGACCGUCCCUUCGGUAAUGGCGAAUGGGACCCA [G31C C64U] it was 0.324.

As for GGCCGGCAUGGUCCCAGCCUCCUCGCUGGCCCCGGCUGGGCAACAUUCCGAGGGGACUGUCCCCUCGGUAAUGGCGAAUGGGACCCA [G31C C58U], the self-cleavage amounted to 0.339. Consider GGCCGGCAUGGUCCCAGCCUCCUCGCUGGCCCCGGCUGGGCAACAUUCCGAGGGGACGGUCCCCUCGGUAAUGGCGAAUGGGACCCA [G31C C58G], for which the self-cleavage was 0.289.

Turning to GGCCGGCAUGGUCCCAGCCUCCUCGCUGGCCCCGGCUGGGCAACAUUCCGAGGGGACAGUCCCCUCGGUAAUGGCGAAUGGGACCCA [G31C C58A], the self-cleavage came out at 0.325.

As for GGCCGGCAUGGUCCCAGCCUCCUCGCUGGCCCCGGCUGGGCAACAUUCCGAGGGGACCGGCCCCUCGGUAAUGGCGAAUGGGACCCA [G31C U60G], the self-cleavage amounted to 0.222. In the case of GGCCGGCAUGGUCCCAGCCUCCUCGCUGGCCCCGGCUGGGCAACAUUCCGAGGGGACCGUCUCCUCGGUAAUGGCGAAUGGGACCCA [G31C C62U], the self-cleavage worked out at 0.386. For GGCCGGCAUGGUCCCAGCCUCCUCGCUGGCUCCGGCUGGGCAACAUUCCGAGGGGACCGUCCCCUCGGUAAUGGCGAAUGGGACCCA [G31U], the self-cleavage was determined as 0.47. Consider GGCCGGCAUGGUCCCAGCCUCCUCGCUGGCUCCGGCUGGGCAACAUUCCGGGGGGACCGUCCCCUCGGUAAUGGCGAAUGGGACCCA [G31U A51G], for which the self-cleavage is 0.369.

Consider GGCCGGCAUGGUCCCAGCCUCCUCGCUGGCUCCGGCUGGGCAACAUUCCGUGGGGACCGUCCCCUCGGUAAUGGCGAAUGGGACCCA [G31U A51U], for which the self-cleavage was determined as 0.525.

Consider GGCCGGCAUGGUCCCAGCCUCCUCGCUGGCCCCGGCUGGGCAACAUUCCGAGGGGACCGUCCCCUCGGUAAUGGCGAAUUGGACCCA [G31C G80U], for which the self-cleavage came to 0.0811. Regarding GGCCGGCAUGGUCCCAGCCUCCUCGCUGGCCCCGGCUGGGCAACAUUCCGAGGGGACCGUCCCCUCGGUAAUGGCGAAUAGGACCCA [G31C G80A], the self-cleavage stood at 0.128. As to GGCCGGCAUGGUCCCAGCCUCCUCGCUGGCCCCGGCUGGGCAACAUUCCGAGGGGACCGUCCCCUCGGUAAUGGCGAAUGUGACCCA [G31C G81U], the self-cleavage stood at 0.086. In the case of GGCCGGCAUGGUCCCAGCCUCCUCGCUGGCCCCGGCUGGGCAACAUUCCGAGGGGACCGUCCCCUCGGUAAUAGCGAAUGGGACCCA [G31C G73A], the self-cleavage stood at 0.0346. With GGCCGGCAUGGUCCCAGCCUCCUCGCUGGCCCCGGCUGGGCAACAUUCCGAGGGGACCGUCCCCUCGGUAAUUGCGAAUGGGACCCA [G31C G73U], the self-cleavage worked out at 0.0779. In the case of GGCCGGCAUGGUCCCAGCCUCCUCGCUGGCCCCGGCUGGUCAACAUUCCGAGGGGACCGUCCCCUCGGUAAUGGCGAAUGGGACCCA [G31C G40U] it was 0.229; in that of GGCCGGCAUGGUCCCAGCCUCCUCGCUGGCCCCGGCUGGCCAACAUUCCGAGGGGACCGUCCCCUCGGUAAUGGCGAAUGGGACCCA [G31C G40C], 0.0346; in that of GGCCGGCAUGGUCCCAGCCUCCUCGCUGGCCCCGGCUGGGCAACAUUCCGAGGGGACCGUCCCCUCGGUAAUGCCGAAUGGGACCCA [G31C G74C], 0.106. Regarding GGCCGGCAUGGUCCCAGCCUCCUCGCUGGCCCCGGCUGGGCAACAUUCCGAGGGGACCGUCCCCUCGGUAAUGUCGAAUGGGACCCA [G31C G74U], the self-cleavage came out at 0.143. On to GGCCGGCAUGGUCCCAGCCUCCUCGCUGGCCCCGGCUGGGCAACAUUCCGAGGGGACCGUCCCCUCGGUAAUGGCGAAUGGGACCUA [G31C C86U], for which the self-cleavage is 0.295. In the case of GGCCGGCAUGGUCCCAGCCUCCUCGCUGGCCCCGGCUGGGCAACAUUCCGAGGGGACCGUCCCCUCGGUAAUGGCGAAUGGGACCAA [G31C C86A] it was 0.312; in that of GGCCGGCAUGGUCCCAGCCUCCUCGCUGGCCCCGGCUGGGCAACAUUCCGAGGGGACCGUACCCUCGGUAAUGGCGAAUGGGACCCA [G31C C61A], 0.332. In the case of GGCCGGCAUGGUCCCAGCCUCCUCGCUGGCCCCGGCUGGGCAACAUUCCGAGGGGACCGUCCCCUCGGUAAUGGCGAAUGGGAACCA [G31C C84A], the self-cleavage worked out at 0.443. Consider GGCCGGCAUGGUCCCAGCCUCCUCGCUGGCUCCGGCUGGGCAACUUUCCGAGGGGACCGUCCCCUCGGUAAUGGCGAAUGGGACCCA [G31U A45U], for which the self-cleavage came out at 0.175.

Consider GGCCGGCAUGGUCCCAGCCUCCUCGCUGGCCCCGGCUGGGCAACAUUCCGAGGGGACCGUCCCCUCGGUAAUGGCGAAGGGGACCCA [G31C U79G], for which the self-cleavage stood at 0. As to GGCCGGCAUGGUCCCAGCCUCCUCGCUGGCCCCGGCUCGGCAACAUUCCGAGGGGACCGUCCCCUCGGUAAUGGCGAAUGGGACCCA [G31C G38C], the self-cleavage turned out to be 0.135. In the case of GGCCGGCAUGGUCCCAGCCUCCUCGCUGGCCCCGGCUAGGCAACAUUCCGAGGGGACCGUCCCCUCGGUAAUGGCGAAUGGGACCCA [G31C G38A] it was 0.0692; in that of GGCCGGCAUGGUCCCAGCCUCCUCGCUGGCCCCGGCUGGGCAACAUUCCGAGGUGACCGUCCCCUCGGUAAUGGCGAAUGGGACCCA [G31C G54U], 0.332.

With GGCCGGCAUGGUCCCAGCCUCCUCGCUGGCCCCGGCUGGGCAACAUUCCGAGGGUACCGUCCCCUCGGUAAUGGCGAAUGGGACCCA [G31C G55U], the self-cleavage came out at 0.338.
